Source: patent publication US20200171163A1 (Daiichi Sankyo, published 2020)
Residue numbers refer to the chain shown, from its start. Each block holds one binder with its values, some of them ahead of it.

Experiments:
[1] = molecular target: T1, human CDH6 (full-length, on cells) (human, UniProt P55285 54-790); assay: competition flow cytometry on 786-O/hCDH6 cells; competitor: Alexa 488-labeled H01L02 at 5 nM; unlabeled antibody varied [lower panel]
T1 construct: also called hCDH6; full-length hCDH6
T1 sequence: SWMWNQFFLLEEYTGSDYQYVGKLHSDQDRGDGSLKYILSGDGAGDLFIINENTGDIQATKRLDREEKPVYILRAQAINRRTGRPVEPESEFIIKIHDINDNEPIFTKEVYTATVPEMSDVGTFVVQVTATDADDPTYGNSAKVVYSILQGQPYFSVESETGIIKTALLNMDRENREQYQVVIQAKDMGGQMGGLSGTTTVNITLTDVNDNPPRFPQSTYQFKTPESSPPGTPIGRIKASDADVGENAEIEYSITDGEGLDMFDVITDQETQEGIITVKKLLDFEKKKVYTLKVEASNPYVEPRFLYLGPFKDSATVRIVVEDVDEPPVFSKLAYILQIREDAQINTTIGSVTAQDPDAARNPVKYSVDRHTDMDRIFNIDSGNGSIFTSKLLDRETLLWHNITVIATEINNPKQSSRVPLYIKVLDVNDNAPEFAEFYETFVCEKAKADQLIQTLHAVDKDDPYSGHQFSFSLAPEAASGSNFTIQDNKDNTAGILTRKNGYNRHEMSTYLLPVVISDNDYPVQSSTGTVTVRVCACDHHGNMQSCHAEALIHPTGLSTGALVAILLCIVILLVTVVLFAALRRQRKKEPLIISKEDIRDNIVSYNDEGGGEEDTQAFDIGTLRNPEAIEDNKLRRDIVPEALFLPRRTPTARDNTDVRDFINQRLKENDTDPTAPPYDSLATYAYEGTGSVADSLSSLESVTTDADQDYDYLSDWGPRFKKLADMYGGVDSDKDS
Description: Thereafter, the cells were suspended by the addition of labeled NOV0712 or labeled H01L02 (final concentration: 5 nM) and, further, the addition of each of the 4 humanized hG019 antibodies (clone Nos: H01L02, H02L02, H02L03 and H04L02), which had been prepared in Example 5)-5-3, or the anti-CDH6 antibody NOV0712, which had been prepared in Reference Example 1, or human IgG1 (Calbiochem) as a negative control (final concentration: as shown in the abscissa of FIG. 9). The cells were left standing at 4° C. for 1 hour. Thereafter, the cells were washed twice with PBS supplemented with 5% FBS, followed by detection using a flow cytometer (Canto II; BD Biosciences). The data was analyzed using FlowJo (Tree Star, Inc.). The abscissa depicts the final concentration of the added unlabeled antibody, and the ordinate depicts the amount of the antibody bound based on mean fluorescence intensity. When unlabeled NOV0712 is added to cells supplemented with labeled NOV0712, the amount of the labeled antibody bound is decreased by replacement with the unlabeled antibody in an addition concentration-dependent manner because they compete with each other for binding to the same epitope. […] Likewise, when each of the 4 unlabeled humanized hG019 antibodies is added to cells supplemented with labeled H01L02, the amount of the labeled antibody bound is decreased by replacement with the unlabeled antibody in an addition concentration-dependent manner because they compete with each other for binding to the same epitope.

[2] = molecular target: T1, human CDH6 (full-length, on cells); assay: flow cytometry; hCDH6-transfected 293T cells (open) vs untransfected control cells (shaded); antibody 10 ng/mL; anti-rat IgG-FITC
Description: The human CDH6-binding activity of the rat anti-CDH6 antibody produced in Example 1)-7 was evaluated by flow cytometry. […] The cells were cultured overnight under conditions of 37° C. and 5% CO₂, and thereafter, a cell suspension was prepared. […] Thereafter, the cells were suspended by the addition of each of the 4 rat anti-CDH6 monoclonal antibodies (clone Nos: rG019, rG055, rG056 and rG061), which had been prepared in Example 1)-7, or rat IgG control (R&D Systems, Inc.) (final concentration: 10 ng/mL). The cells were left standing at 4° C. for 1 hour. The cells were washed twice with PBS supplemented with 5% FBS, and then suspended by the addition of Anti-Rat IgG (whole molecule)-FITC antibody produced in rabbit (Sigma-Aldrich Co. LLC) that had been 50-fold diluted with PBS supplemented with 5% FBS. The cells were left standing at 4° C. for 1 hour. The cells were washed twice with PBS supplemented with 5% FBS, followed by detection using a flow cytometer (FC500; Beckman Coulter, Inc.). The data was analyzed using FlowJo (Tree Star, Inc.). In the histogram of FIG. 1, the abscissa depicts FITC fluorescence intensity indicating the amount of the antibody bound, and the ordinate depicts a cell count. […] The rat IgG control binds to neither of the cells.

B1: H02L02 antibody (antibody, human IgG1, kappa, V domains shown)
VH: EVQLVQSGAEVKKPGASVKVSCKASGYTFTRNFMHWVRQAPGQGLEWMGWIYPGDGETEYNQKFQGRVTITADRSTSTAYMELSSLRSEDTAVYFCARGVYGGFAGGYFDFWGQGTLVTVSS
VL: DIQMTQSPSSLSASVGDRVTITCKASQNIYKNLAWYQQKPGKAPKLLIYDANTLQTGVPSRFSGSGSGSDFTLTISSLQPEDFATYFCQQYYSGWAFGQGTKVEIKR
notes: Humanized IgG1/kappa (hH02 + hL02); also called humanized hG019 antibody H02L02
IC50 (read off the curve) [1]: ~3 nM

B3: H02L03 antibody (antibody, human IgG1, kappa, V domains shown)
VH: B1 VH
VL: B1 VL with P40L, K42E, A43G, S69T, F87Y
notes: Humanized IgG1/kappa (hH02 + hL03); also called humanized hG019 antibody H02L03
IC50 (read off the curve) [1]: ~10 nM

B6: rG061 antibody (antibody, V domains shown)
VH: EVQLQESGPGLVKPSQSLSLTCSVTGYSITTYYWGWIRKFPGNKMEWMGYISYSGRTSYNPSLKSRMSITRDASKNQFFLQLNSVTTDDTATYYCARSPINHGGYWYFDFWGPGTMVTVSS
VL: DVQMTQSPSYLAASPGESVSISCKATKSISNYLAWYQQKPGEAYKVLIYSGSTLQSGTPSRFSGSGSGTDFTLTIRSLEPEDFGLYSCQQYYEKPLTFGSGTKLEIKR
notes: Rat monoclonal purified from hybridoma; also called rat anti-CDH6 monoclonal antibody clone rG061
binding result [2]: binds

Results, then the binder that gave them:

IC50 (read off the curve) [1]: ~10 nM
B2: H04L02 antibody (antibody, human IgG1, kappa, V domains shown)
VH: B1 VH with E1Q, V37I, N61A, I70L, F95Y
VL: B1 VL
notes: Humanized IgG1/kappa (hH04 + hL02); also called humanized hG019 antibody H04L02

IC50 (read off the curve) [1]: ~5 nM
B4: H01L02 antibody (antibody, human IgG1, kappa, V domains shown)
VH: B1 VH with N61A, R74T, F95Y
VL: B1 VL
notes: Humanized IgG1/kappa (hH01 + hL02); also called humanized hG019 antibody H01L02; labeled H01L02

binding result [2]: binds
B5: rG055 antibody (antibody, V domains shown)
VH: EVQLQESGPGLVRPSQSLSLSCSVTDYSITSNYWGWIRRFPGNKMEWMGYITYSGYTSYNPSLQSRISITRDTSKNQFFLQLNSVTAEDTATYYCARSINHGGYSYVVDAWGPGASVTVSS
VL: B6 VL with Q6H, A25T, T26S, S28N, A34V, V46L, S87F, L96F
notes: Rat monoclonal purified from hybridoma; also called rat anti-CDH6 monoclonal antibody clone rG055

binding result [2]: binds
B7: rG056 antibody (antibody, V domains shown)
VH: EVQLQESGPGLVKPSQSLSLTCSVTDYSITTYFWGWIRKFPGNKMEWMGYMSYRGGTSYNPSLKSRISITRDTSKNQFFLQLNSVTTEDTATYYCARCPNYGGHSLVFDYWGQGVMVTVSS
VL: DVQMTQSPSSLAASPGESVSISCRATKSIGIYLAWYQQKPGKTFKLLIYSGSTLQSGTPSRFSGSGSGTDFTLTIRSLEPEDFGLYFCQQFYENPFTFGSGTKLEIRR
notes: Rat monoclonal purified from hybridoma; also called rat anti-CDH6 monoclonal antibody clone rG056

binding result [2]: binds
B8: rG019 antibody (antibody, V domains shown)
VH: QVQLQQSGAELVKPGSSVKISCKASGYTFTRNFMHWIKQQPGNGLEWIGWIYCGDGETEYNQKFNGKATLTADRSSSTAYMELSRLTSEDSAVYFCARGVYGGFAGGYFDFWGQGVMVTVSS
VL: DIQMTQSPSLLSASVGDRVTLNCKASQNIYKNLAWYQQKLGEGPKLLIYDANTLQTGIPSRFSGSGSGSDFTLTISSLQPEDVATYFCQQYYSGWAFGGVTNLELKRA
notes: Rat monoclonal purified from hybridoma; also called rat anti-CDH6 monoclonal antibody clone rG019
